{"source": "patent US7666582B2", "about": "“IdeS, an IgG-degrading enzyme of Streptococcus pyogenes” (Hansa Medical Research AB, priority 2001, dated 2010)", "molecules": {"B1": {"name": "IdeS: new extracellular cysteine protease produced by S. pyogenes, highly specific for IgG; SEQ ID NO: 1 (protein)", "chain": "DSFSANQEIRYSEVTPYHVTSVWTKGVTPPANFTQGEDVFHAPYVANQGWYDITKTFNGKDDLLCGAATAGNMLHWWFDQNKDQIKRYLEEHPEKQKINFNGEQMFDVKEAIDTKNHQLDSKLFEYFKEKAFPYLSTKHLGVFPDHVIDMFINGYRLSLTNHGPTPVKEGSKDPRGGIFDAVFTRGDQSKLLTSRHDFKEKNLKEISDLIKKELTEGKALGLSHTYANVRINHVINLWGADFDSNGNLKAIYVTDSDSNASIGMKKYFVGVNSAGKVAISAKEIKEDNIGAQVLGLFTLSTGQDSWNQTN", "modifications": "S. Pyogenes"}}, "key": {"[1]": {"test_system": "human IgG", "assay": "IdeS cleavage assay of Ig classes: IgG", "assay_type": "biochemical", "protocol": "(§1) For standard IdeS activity assays, bacteria cultures were grown to OD620=0.4. Bacteria were pelleted by centrifugation and supernatants were sterile-filtered through a 0.22 μm membrane (Millipore) prior to use. For activity assays, […] of supernatant were mixed with 5 μl of IgG (10 mg/ml, Sigma) and the volume was adjusted with PBS to 100 μl. For screening of IdeS activity in different S. progenes strains, E64 was added to a final concentration of 40 μM. The mixtures were incubated at 37° C. for 30 min and samples were analyzed by 12% SDS-PAGE. For cleavage assays of different classes of Ig, purified IdeS (0.3 μg/ml) was incubated with 3 μg Ig for 2 h at 37° C., and analyzed by 12% SDS-PAGE analysis."}, "[2]": {"test_system": "human IgA", "assay": "IdeS cleavage assay of Ig classes: IgA", "assay_type": "biochemical", "settings": "purified IdeS, 2 h at 37° C.", "protocol": "as §1"}, "[3]": {"test_system": "human IgD", "assay": "IdeS cleavage assay of Ig classes: IgD", "assay_type": "biochemical", "settings": "purified IdeS, 2 h at 37° C.", "protocol": "as §1"}, "[4]": {"test_system": "human IgE", "assay": "IdeS cleavage assay of Ig classes: IgE", "assay_type": "biochemical", "settings": "purified IdeS, 2 h at 37° C.", "protocol": "as §1"}, "[5]": {"test_system": "different subclasses of IgG", "assay": "IdeS activity against the subclasses of IgG", "assay_type": "biochemical, human"}, "[6]": {"test_system": "whole human plasma", "assay": "Incubation of human plasma with IdeS", "assay_type": "biochemical"}, "[7]": {"test_system": "rabbit IgG", "assay": "IdeS species restrictions: rabbit IgG", "assay_type": "biochemical"}, "[8]": {"test_system": "goat IgG", "assay": "IdeS species restrictions: goat IgG", "assay_type": "biochemical"}, "[9]": {"target": "fibronectin (Homo sapiens, UniProt P02751)", "sequence (P02751 32-2477)": "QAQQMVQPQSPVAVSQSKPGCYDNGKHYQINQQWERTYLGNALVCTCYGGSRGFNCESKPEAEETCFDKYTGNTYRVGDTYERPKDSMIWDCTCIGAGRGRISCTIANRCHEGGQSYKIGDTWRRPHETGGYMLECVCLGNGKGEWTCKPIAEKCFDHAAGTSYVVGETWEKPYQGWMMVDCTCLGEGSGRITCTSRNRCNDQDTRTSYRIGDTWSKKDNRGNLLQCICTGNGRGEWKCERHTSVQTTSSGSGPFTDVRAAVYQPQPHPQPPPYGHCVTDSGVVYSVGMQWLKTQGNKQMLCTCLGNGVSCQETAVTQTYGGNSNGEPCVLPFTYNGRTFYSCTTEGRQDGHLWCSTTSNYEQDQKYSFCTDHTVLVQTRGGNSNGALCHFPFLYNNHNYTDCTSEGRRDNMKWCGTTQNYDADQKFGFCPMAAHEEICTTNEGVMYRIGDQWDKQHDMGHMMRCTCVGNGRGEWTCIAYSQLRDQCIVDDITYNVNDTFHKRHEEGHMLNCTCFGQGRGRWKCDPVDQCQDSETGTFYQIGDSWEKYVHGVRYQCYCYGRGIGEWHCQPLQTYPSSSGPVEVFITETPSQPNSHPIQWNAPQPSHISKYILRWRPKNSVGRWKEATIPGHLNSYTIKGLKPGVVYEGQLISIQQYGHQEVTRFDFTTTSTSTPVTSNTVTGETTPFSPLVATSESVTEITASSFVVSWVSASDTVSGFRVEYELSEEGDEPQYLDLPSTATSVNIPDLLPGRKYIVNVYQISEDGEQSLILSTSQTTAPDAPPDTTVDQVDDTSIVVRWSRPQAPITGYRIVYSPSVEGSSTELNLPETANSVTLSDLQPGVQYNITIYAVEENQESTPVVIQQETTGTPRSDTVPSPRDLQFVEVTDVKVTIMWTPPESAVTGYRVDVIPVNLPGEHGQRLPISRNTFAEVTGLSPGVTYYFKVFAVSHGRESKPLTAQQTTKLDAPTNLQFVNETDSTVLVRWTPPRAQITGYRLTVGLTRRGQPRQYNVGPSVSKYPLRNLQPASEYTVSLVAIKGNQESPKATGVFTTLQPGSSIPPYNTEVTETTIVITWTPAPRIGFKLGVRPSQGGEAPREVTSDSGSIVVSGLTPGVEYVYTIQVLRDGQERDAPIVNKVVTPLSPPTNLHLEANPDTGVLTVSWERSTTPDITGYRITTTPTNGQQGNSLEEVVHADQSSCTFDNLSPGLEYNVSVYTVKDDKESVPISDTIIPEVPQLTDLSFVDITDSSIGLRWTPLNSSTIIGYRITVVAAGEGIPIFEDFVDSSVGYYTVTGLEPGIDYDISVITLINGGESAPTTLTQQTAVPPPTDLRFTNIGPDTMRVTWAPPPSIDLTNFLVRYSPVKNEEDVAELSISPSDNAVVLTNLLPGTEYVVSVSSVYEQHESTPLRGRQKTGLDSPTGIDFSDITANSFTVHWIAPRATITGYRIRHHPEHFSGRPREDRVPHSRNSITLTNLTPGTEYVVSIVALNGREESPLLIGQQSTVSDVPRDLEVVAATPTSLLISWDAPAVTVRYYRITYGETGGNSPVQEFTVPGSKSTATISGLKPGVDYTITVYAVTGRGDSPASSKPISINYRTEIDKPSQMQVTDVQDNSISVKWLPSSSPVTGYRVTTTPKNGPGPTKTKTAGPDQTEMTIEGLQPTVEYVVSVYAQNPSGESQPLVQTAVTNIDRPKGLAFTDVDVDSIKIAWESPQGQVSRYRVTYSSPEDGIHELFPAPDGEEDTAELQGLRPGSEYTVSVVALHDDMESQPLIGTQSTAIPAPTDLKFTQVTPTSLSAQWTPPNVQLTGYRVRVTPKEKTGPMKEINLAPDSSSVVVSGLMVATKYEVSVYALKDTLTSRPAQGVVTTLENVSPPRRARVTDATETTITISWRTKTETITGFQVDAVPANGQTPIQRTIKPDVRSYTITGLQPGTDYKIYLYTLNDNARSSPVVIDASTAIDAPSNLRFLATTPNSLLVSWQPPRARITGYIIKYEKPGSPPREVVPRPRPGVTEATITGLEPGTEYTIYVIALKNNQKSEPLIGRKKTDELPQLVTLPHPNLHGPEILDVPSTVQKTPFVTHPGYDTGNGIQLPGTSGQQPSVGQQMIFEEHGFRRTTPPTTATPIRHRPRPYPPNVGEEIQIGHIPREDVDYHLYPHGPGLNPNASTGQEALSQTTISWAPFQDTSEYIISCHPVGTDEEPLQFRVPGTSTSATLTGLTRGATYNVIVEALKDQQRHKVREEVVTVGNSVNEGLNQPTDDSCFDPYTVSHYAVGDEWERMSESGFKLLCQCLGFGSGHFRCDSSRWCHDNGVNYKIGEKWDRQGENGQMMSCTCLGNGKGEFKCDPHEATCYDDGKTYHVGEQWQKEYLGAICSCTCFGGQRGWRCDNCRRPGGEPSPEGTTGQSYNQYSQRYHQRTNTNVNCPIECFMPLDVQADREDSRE", "assay": "IdeS cleavage of other human proteins: fibronectin", "assay_type": "biochemical"}, "[10]": {"target": "albumin (Homo sapiens, UniProt P02768)", "assay": "IdeS cleavage of other human proteins: albumin", "assay_type": "biochemical"}, "[11]": {"target": "lactoferrin (Homo sapiens, UniProt P02788)", "sequence (P02788 20-710)": "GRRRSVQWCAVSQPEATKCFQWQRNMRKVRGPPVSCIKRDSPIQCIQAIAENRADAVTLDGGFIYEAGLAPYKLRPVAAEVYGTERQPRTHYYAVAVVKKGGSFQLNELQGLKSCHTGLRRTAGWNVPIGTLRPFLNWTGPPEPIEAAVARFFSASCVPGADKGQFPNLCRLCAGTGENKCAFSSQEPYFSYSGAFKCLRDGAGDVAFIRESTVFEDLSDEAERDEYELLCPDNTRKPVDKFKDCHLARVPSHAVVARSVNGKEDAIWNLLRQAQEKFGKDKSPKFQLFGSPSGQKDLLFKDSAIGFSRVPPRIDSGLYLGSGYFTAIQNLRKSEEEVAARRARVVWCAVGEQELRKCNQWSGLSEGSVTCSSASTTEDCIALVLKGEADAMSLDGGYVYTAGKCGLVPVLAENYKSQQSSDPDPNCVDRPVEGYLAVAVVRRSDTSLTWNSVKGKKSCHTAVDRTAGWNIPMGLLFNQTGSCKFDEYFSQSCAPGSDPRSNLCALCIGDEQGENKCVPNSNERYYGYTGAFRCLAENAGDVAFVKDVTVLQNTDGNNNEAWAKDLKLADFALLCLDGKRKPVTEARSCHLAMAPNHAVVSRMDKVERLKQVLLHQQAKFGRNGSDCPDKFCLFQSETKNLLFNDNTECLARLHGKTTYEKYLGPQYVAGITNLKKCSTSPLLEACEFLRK", "assay": "IdeS cleavage of other human proteins: lactoferrin", "assay_type": "biochemical"}, "[12]": {"test_system": "laminin", "assay": "IdeS cleavage of other human proteins: laminin", "assay_type": "biochemical"}, "[13]": {"target": "T1, H-kininogen (Homo sapiens, UniProt P01042)", "T1 sequence (P01042 19-644)": "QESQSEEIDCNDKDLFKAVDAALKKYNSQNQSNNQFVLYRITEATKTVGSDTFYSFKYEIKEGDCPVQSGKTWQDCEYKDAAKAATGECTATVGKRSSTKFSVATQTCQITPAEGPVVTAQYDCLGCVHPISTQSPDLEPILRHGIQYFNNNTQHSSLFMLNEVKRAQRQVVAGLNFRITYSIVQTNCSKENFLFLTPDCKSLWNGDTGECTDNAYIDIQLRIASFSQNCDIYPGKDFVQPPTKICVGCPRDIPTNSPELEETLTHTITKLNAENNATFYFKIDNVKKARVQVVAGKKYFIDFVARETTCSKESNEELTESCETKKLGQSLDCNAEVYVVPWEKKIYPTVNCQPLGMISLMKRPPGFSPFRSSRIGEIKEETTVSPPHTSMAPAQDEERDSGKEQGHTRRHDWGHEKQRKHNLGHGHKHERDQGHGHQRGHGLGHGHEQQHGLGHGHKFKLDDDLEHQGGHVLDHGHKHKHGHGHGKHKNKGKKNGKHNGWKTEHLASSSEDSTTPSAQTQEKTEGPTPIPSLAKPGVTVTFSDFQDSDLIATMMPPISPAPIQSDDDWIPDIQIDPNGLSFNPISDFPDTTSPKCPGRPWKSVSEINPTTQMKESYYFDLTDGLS", "assay": "IdeS cleavage of other human proteins: H-kininogen", "assay_type": "biochemical"}, "[14]": {"target": "α 1-antitrypsin (Homo sapiens, UniProt P01009)", "sequence (P01009 25-418)": "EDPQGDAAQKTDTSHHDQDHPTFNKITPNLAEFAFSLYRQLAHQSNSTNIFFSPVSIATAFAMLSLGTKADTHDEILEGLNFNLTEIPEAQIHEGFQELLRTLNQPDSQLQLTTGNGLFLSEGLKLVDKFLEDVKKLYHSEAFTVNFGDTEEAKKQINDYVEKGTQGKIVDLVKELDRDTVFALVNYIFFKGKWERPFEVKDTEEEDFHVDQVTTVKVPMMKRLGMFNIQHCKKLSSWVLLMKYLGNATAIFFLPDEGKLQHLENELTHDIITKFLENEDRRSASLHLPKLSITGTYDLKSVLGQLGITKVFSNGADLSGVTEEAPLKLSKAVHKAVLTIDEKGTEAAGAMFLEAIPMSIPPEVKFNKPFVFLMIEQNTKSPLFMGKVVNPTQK", "assay": "IdeS cleavage of other human proteins: α 1-antitrypsin", "assay_type": "biochemical"}, "[15]": {"target": "T2, cystatin D (Homo sapiens, UniProt P28325)", "T2 sequence (P28325 21-142)": "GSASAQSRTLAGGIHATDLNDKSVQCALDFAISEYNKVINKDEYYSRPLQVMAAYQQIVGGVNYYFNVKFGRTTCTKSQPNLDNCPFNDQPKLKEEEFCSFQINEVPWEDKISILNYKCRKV", "assay": "IdeS cleavage of other human proteins: cystatin D", "assay_type": "biochemical"}, "[16]": {"target": "T3, cystatin C (Gallus gallus, UniProt P01038)", "T3 sequence (P01038 24-139)": "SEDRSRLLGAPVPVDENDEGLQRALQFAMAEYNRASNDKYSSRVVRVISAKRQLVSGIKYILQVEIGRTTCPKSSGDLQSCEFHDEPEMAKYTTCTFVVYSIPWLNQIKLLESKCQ", "assay": "IdeS incubation with chicken cystatin C", "assay_type": "biochemical"}, "[17]": {"target": "T4, cystatin C (Mus musculus, UniProt P21460)", "T4 sequence (P21460 21-140)": "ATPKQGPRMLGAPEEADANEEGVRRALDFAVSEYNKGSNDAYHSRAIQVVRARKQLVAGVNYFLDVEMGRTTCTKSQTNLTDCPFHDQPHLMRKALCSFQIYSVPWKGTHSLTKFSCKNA", "assay": "IdeS incubation with mouse cystatin C", "assay_type": "biochemical"}, "[18]": {"test_system": "synthetic peptide homologous to amino acids 234 to 241 of human IgG", "assay": "IdeS activity towards peptides: IgG hinge peptide", "assay_type": "biochemical"}, "[19]": {"test_system": "Fc-fragment generated by papain cleavage, including 12 amino acids of the hinge region", "assay": "IdeS cleavage of papain-generated Fc-fragment", "assay_type": "biochemical, human"}}, "data": [{"molecule": "B1", "values": [{"measurement": "degradation of human IgG", "setting": "[1]; purified IdeS, 2 h at 37° C.", "result": "only IgG was degraded"}, {"measurement": "cleavage of human IgG", "setting": "[1]; species restrictions", "result": "cleave"}, {"measurement": "degradation of human IgA", "setting": "[2]", "result": "only IgG was degraded"}, {"measurement": "degradation of human IgD", "setting": "[3]", "result": "only IgG was degraded"}, {"measurement": "degradation of human IgE", "setting": "[4]", "result": "only IgG was degraded"}, {"measurement": "digestion of the different subclasses of IgG", "setting": "[5]", "result": "all were susceptible for IdeS digestion"}, {"measurement": "degradation products in human plasma", "setting": "[6]; purified IdeS", "result": "only the 31 kDa IgG-derived band and no additional degradation products could be identified"}, {"measurement": "cleavage products", "setting": "[6]; whole human plasma, further studies", "result": "No cleavage products could be detected"}, {"measurement": "cleavage of rabbit IgG", "setting": "[7]", "result": "cleave"}, {"measurement": "cleavage of goat IgG", "setting": "[8]", "result": "cleave"}, {"measurement": "cleavage products, fibronectin", "setting": "[9]", "result": "No cleavage products could be detected"}, {"measurement": "cleavage products, albumin", "setting": "[10]", "result": "No cleavage products could be detected"}, {"measurement": "cleavage products, lactoferrin", "setting": "[11]", "result": "No cleavage products could be detected"}, {"measurement": "cleavage products, laminin", "setting": "[12]", "result": "No cleavage products could be detected"}, {"measurement": "cleavage products, H-kininogen", "setting": "[13]", "result": "No cleavage products could be detected"}, {"measurement": "cleavage products, α 1-antitrypsin", "setting": "[14]", "result": "No cleavage products could be detected"}, {"measurement": "cleavage products, cystatin D", "setting": "[15]", "result": "No cleavage products could be detected"}, {"measurement": "cleavage products, cystatin C from chicken", "setting": "[16]", "result": "No cleavage products could be observed"}, {"measurement": "cleavage products, cystatin C from mouse", "setting": "[17]", "result": "No cleavage products could be observed"}, {"measurement": "degradation of synthetic peptide (amino acids 234 to 241 of human IgG)", "setting": "[18]", "result": "did not reveal any degradation"}, {"measurement": "cleavage of papain-generated Fc-fragment", "setting": "[19]", "result": "is cleaved"}]}]}
